Test results as given in patent US20230341394A1.

Target: CR3022 IgG antibody

anti-IgG Nanobody (Chromotek Nano-Secondary alpaca anti-human IgG) (VHH)
assay signal (TR-FRET ratio) (TR-FRET ratio): 0.6

anti-IgG antibody (Bethyl, A80-104A)
assay signal (TR-FRET ratio) (TR-FRET ratio): 0.25
